{
  "source": "paper PMC13043311",
  "about": "“2′-O-Methyl-guanosine RNA fragments antagonize TLR7 and TLR8 to limit autoimmunity”",
  "conditions_in_all_cases": "protein: recombinant; chain copies: 2; single-stranded",
  "key": {"TLR7 F507L": {"molecular_target": "T1, TLR7 F507L (Macaca mulatta, UniProt B3Y653 27-839, F507L)", "T1 sequence": "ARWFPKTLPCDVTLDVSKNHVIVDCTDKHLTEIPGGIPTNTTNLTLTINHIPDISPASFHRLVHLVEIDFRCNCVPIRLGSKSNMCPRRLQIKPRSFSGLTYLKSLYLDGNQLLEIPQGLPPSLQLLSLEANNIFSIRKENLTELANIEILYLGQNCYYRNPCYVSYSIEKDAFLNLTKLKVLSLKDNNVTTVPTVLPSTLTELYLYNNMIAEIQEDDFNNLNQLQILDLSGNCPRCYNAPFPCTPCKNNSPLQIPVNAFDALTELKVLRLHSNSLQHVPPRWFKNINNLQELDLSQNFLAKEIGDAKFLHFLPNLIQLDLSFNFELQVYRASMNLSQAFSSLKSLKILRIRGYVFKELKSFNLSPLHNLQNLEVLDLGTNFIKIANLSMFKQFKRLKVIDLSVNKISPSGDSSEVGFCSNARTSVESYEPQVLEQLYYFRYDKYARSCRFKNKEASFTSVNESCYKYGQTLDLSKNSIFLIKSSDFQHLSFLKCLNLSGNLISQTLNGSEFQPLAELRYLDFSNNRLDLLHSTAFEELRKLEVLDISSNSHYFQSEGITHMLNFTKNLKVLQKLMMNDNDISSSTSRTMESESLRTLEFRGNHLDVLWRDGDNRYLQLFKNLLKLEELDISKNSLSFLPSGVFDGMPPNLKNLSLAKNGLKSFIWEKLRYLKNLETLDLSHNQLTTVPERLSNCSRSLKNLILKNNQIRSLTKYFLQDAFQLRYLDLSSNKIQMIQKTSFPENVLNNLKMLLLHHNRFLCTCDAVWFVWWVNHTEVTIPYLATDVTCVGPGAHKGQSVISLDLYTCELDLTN", "assay": "SPR; mean computed from runs 16±2, 18±2, 20±6; SPR with recombinant TLR7/TLR8; buffer, pH and temperature not in the material"}, "TLR7 F507S": {"molecular_target": "T2, TLR7 F507S (Macaca mulatta, UniProt B3Y653 27-839, F507S)", "T2 sequence": "T1 sequence with L481S", "assay": "SPR; mean computed from runs 36±1, 46±2, 42±6; SPR with recombinant TLR7/TLR8; buffer, pH and temperature not in the material"}, "TLR7 F506L": {"molecular_target": "T3, TLR7 F506L (Macaca mulatta, UniProt B3Y653 27-839, F506L)", "T3 sequence": "T1 sequence with F480L, L481F", "assay": "SPR; mean computed from runs 4±0.5, 5±0.6, 5±2; SPR with recombinant TLR7/TLR8; buffer, pH and temperature not in the material"}},
  "note": "Residue numbers refer to the chain shown, from its start.",
  "data": [
    {"binder": "GUC (XNA, 2'-OMe G1, RNA U2 C3; phosphorothioate linkages)", "note": "[mGrUrC PS]", "values": [
      {"measurement": "Kd", "setting": "TLR7 F507L", "value": 18, "unit": "µM"},
      {"measurement": "Kd", "setting": "TLR7 F507S", "value": 41.3, "unit": "µM"},
      {"measurement": "Kd", "setting": "TLR7 F506L", "value": 4.67, "unit": "µM"}
    ]}
  ]
}
